These results are taken from paper doi:10.1101/2020.06.08.118984 (bioRxiv, 2020).

This data set concerns the molecule itself. As to the kind of experiment: crystal structure.

B1: mouse TBPL2 core domain (TBPL2^C) (domain or fragment)
chain: SGIVPQLQNVVSTANLACKLDLRKIALNAKNTEYNPKRFAAVIMRIREPRTTALIFSSGKVVCTGAKSEEESRLAARKYARVVQKLGFPVRFFNFKIQNMVGSCDVKFPIRLEILALTHRQFSSSYEPELFPGLIYKMVKPQVVLLIFASGKVVLTGAKERSEIYEAFENMYPILESFKK
For orientation: stoichiometry N means a count of units in the complex or per binding partner. Regarding B1, the “stoichiometry N” value worked out at 2.
